According to article PMC4230619 (Molecular Biology of the Cell, 2014):

Target: the molecule itself
Assay: single-molecule TIRF step-intensity counting in live cells

B1: dynamin2-EGFP (natural protein, human (endogenous in SUM159), UniProt P50570 1-870, looked up)
chain: MGNRGMEELIPLVNKLQDAFSSIGQSCHLDLPQIAVVGGQSAGKSSVLENFVGRDFLPRGSGIVTRRPLILQLIFSKTEHAEFLHCKSKKFTDFDEVRQEIEAETDRVTGTNKGISPVPINLRVYSPHVLNLTLIDLPGITKVPVGDQPPDIEYQIKDMILQFISRESSLILAVTPANMDLANSDALKLAKEVDPQGLRTIGVITKLDLMDEGTDARDVLENKLLPLRRGYIGVVNRSQKDIEGKKDIRAALAAERKFFLSHPAYRHMADRMGTPHLQKTLNQQLTNHIRESLPALRSKLQSQLLSLEKEVEEYKNFRPDDPTRKTKALLQMVQQFGVDFEKRIEGSGDQVDTLELSGGARINRIFHERFPFELVKMEFDEKDLRREISYAIKNIHGVRTGLFTPDLAFEAIVKKQVVKLKEPCLKCVDLVIQELINTVRQCTSKLSSYPRLREETERIVTTYIREREGRTKDQILLLIDIEQSYINTNHEDFIGFANAQQRSTQLNKKRAIPNQGEILVIRRGWLTINNISLMKGGSKEYWFVLTAESLSWYKDEEEKEKKYMLPLDNLKIRDVEKGFMSNKHVFAIFNTEQRNVYKDLRQIELACDSQEDVDSWKASFLRAGVYPEKDQAENEDGAQENTFSMDPQLERQVETIRNLVDSYVAIINKSIRDLMPKTIMHLMINNTKAFIHHELLAYLYSSADQSSLMEESADQAQRRDDMLRMYHALKEALNIIGDISTSTVSTPVPPPVDDTWLQSASSHSPTPQRRPVSSIHPPGRPPAVRGPTPGPPLIPVPVGAAASFSAPPIPSRPGPQSVFANSDLFPAPPQIPSRPVRIPPGIPPGVPSRRPPAAPSRPTIIRPAEPSLLD
- stoichiometry N: 2
